These results are taken from doi:10.1101/2024.09.25.614871v2.

Substrate in data set [1]: C=C(CC(=O)O)C(=O)O
The experiment in a line: PK/LDH-coupled NADH consumption. The format is biochemical, Homo sapiens. As to conditions: 0.1 mM CoA, 7 mM MgCl2, pH 7.5, 30 °C.

Substrate in data set [2]: O=C(O)C[C@H](O)C(=O)O
The experiment in a line: PK/LDH-coupled NADH consumption. The class given is biochemical, Homo sapiens. As to conditions: 0.1 mM CoA, 7 mM MgCl2, pH 7.5, 30 °C.

Substrate in the data set “purified protein”: CC(C)(COP(=O)(O)OP(=O)(O)OC[C@H]1O[C@@H](n2cnc3c(N)ncnc32)[C@H](O)[C@@H]1OP(=O)(O)O)[C@@H](O)C(=O)NCCC(=O)NCCSC(=O)C[C@H](O)C(=O)O
The experiment in a line: purified protein. The format is biochemical, Sus scrofa. The note with it: pH 7.5, 37 °C, 100 mM Tris.

B1: SUCL (ADP-forming), SUCLG1:SUCLA2 complex (Homo sapiens) (protein)
chain 1: not shown
chain 2: LSLHEYMSMELLQEAGVSVPKGYVAKSPDEAYAIAKKLGSKDVVIKAQVLAGGRGKGTFESGLKGGVKIVFSPEEAKAVSSQMIGKKLFTKQTGEKGRICNQVLVCERKYPRREYYFAITMERSFQGPVLIGSSHGGVNIEDVAAESPEAIIKEPIDIEEGIKKEQALQLAQKMGFPPNIVESAAENMVKLYSLFLKYDATMIEINPMVEDSDGAVLCMDAKINFDSNSAYRQKKIFDLQDWTQEDERDKDAAKANLNYIGLDGNIGCLVNGAGLAMATMDIIKLHGGTPANFLDVGGGATVHQVTEAFKLITSDKKVLAILVNIFGGIMRCDVIAQGIVMAVKDLEIKIPVVVRLQGTRVDDAKALIADSGLKILACDDLDEAARMVVKLSEIVTLAKQAHVDVKFQLPI
Turning to B1, in data set [1] (0.6 mM ATP), the Km (usually the concentration of substrate that gives half-maximal velocity) came to 19100 ± 2500 µM and the kcat (in general, the maximal rate divided by the concentration of active sites) turned out to be 0.65 ± 0.08 s⁻¹. In data set [2] (0.6 mM ATP), the Km worked out at 21900 ± 5800 µM and the kcat was 0.06 ± 0.01 s⁻¹.

B2: citrate synthase (CS) (Sus scrofa) (protein)
chain: ASSTNLKDILADLIPKEQARIKTFRQQHGNTVVGQITVDMMYGGMRGMKGLVYETSVLDPDEGIRFRGYSIPECQKMLPKAKGGEEPLPEGLFWLLVTGQIPTEEQVSWLSKEWAKRAALPSHVVTMLDNFPTNLHPMSQLSAAITALNSESNFARAYAEGIHRTKYWELIYEDCMDLIAKLPCVAAKIYRNLYREGSSIGAIDSKLDWSHNFTNMLGYTDAQFTELMRLYLTIHSDHEGGNVSAHTSHLVGSALSDPYLSFAAAMNGLAGPLHGLANQEVLVWLTQLQKEVGKDVSDEKLRDYIWNTLNSGRVVPGYGHAVLRKTDPRYTCQREFALKHLPHDPMFKLVAQLYKIVPNVLLEQGKAKNPWPNVDAHSGVLLQYYGMTEMNYYTVLFGVSRALGVLAQLIWSRALGFPLERPKSMSTDGLIKLVDSK
For the protein B2, in the data set “purified protein”, the Km amounted to 106 µM.

B3: SUCL (GDP-forming), SUCLG1:SUCLG2 complex (Homo sapiens) (protein)
chain 1: not shown
chain 2: LNLQEYQSKKLMSDNGVRVQRFFVADTANEALEAAKRLNAKEIVLKAQILAGGRGKGVFNSGLKGGVHLTKDPNVVGQLAKQMIGYNLATKQTPKEGVKVNKVMVAEALDISRETYLAILMDRSCNGPVLVGSPQGGVDIEEVAASNPELIFKEQIDIFEGIKDSQAQRMAENLGFVGPLKSQAADQITKLYNLFLKIDATQVEVNPFGETPEGQVVCFDAKINFDDNAEFRQKDIFAMDDKSENEPIENEAAKYDLKYIGLDGNIACFVNGAGLAMATCDIIFLNGGKPANFLDLGGGVKEAQVYQAFKLLTADPKVEAILVNIFGGIVNCAIIANGITKACRELELKVPLVVRLEGTNVQEAQKILNNSGLPITSAIDLED
B3: in data set [1] (0.6 mM GTP), the Michaelis constant (Km) was determined as 1500 ± 200 µM and the catalytic constant (kcat) amounted to 5.3 ± 0.2 s⁻¹. Also, in data set [2] (0.6 mM GTP), the Km worked out at 1900 ± 300 µM and the kcat worked out at 0.18 ± 0.02 s⁻¹.
